Kd, koff and kon data for 1 substance are collected here from article PMC10221034 (2023).

The assay concerns the target wild-type rTpiA (recombinant Streptococcus pneumoniae D39 triosephosphate isomerase) (Streptococcus pneumoniae D39) (UniProt Q04JH4). Briefly: SPR; Biacore X100; rTpiA immobilised on CM5 chip by amine coupling; plasminogen 6.25-100 nM injected, contact time 120 s, 20 µL/min; running buffer 100 mM HEPES pH 7.4, 150 mM NaCl, 3 mM EDTA, 0.005% surfactant P20; apparent constants.

Chain of wild-type rTpiA (recombinant Streptococcus pneumoniae D39 triosephosphate isomerase) (Streptococcus pneumoniae D39) (Q04JH4 2-252): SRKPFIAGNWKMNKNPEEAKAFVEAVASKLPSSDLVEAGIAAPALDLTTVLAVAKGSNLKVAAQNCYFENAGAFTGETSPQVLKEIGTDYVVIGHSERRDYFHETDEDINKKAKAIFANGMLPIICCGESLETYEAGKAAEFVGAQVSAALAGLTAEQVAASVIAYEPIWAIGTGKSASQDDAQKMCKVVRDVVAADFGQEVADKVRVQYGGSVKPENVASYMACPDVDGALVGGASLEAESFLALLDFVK

For “human plasma plasminogen (natural protein)”, the Kd came out at 865 nM, the koff is 0.00375 s⁻¹ and the kon amounted to 4340 M⁻¹ s⁻¹.
